Assay [1] addresses T1, human ART1 expressed on HEK293 cells (human, UniProt P52961 23-295).
T1 sequence: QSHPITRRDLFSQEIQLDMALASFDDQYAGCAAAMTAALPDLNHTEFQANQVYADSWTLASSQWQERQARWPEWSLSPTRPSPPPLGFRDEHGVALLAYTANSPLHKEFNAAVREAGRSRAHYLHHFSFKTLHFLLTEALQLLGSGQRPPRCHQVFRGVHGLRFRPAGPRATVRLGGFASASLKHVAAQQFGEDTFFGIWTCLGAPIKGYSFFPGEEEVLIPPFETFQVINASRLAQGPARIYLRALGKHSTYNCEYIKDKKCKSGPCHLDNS
Kind of assay: cell-based or functional assay.

The target of assay [2] is T2, purified recombinant human ART1 (human, UniProt P52961 23-295).
T2 construct: Produced in HEK293 cells and purified; also called huART1; human ADP-ribosyltransferase 1
T2 sequence: T1 sequence
Kind of assay: SPR; antibody captured on anti-mouse Fc surface, ART1 as analyte, 1:1 kinetic fit. On the procedure: (§1) FIGS. 12A-12D. […] Sensorgrams are double-reference subtracted using a control surface and blank injections. Affinity constants were determined by kinetic fit using a 1:1 binding model.
(In general: In SPR one partner is held on a chip, and binding of the other changes the refractive index at the surface.)

The target of assay [3] is T3, purified recombinant mouse ART1 (mouse, UniProt Q60935 23-290).
T3 construct: Produced in HEK293 cells and purified; also called moART1; murine ART1
T3 sequence: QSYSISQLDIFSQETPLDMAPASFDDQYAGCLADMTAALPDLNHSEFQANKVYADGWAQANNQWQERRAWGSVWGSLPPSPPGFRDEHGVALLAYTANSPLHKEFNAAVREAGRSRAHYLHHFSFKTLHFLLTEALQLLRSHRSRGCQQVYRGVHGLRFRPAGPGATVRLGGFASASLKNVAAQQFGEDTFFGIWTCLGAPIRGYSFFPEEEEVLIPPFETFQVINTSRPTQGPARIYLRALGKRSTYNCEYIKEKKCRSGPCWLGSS
The description is as above. The procedure: as §1

Assay [4] deals with T2, purified recombinant human ART1. Kind of assay: sensorgrams R [RU] against time [s] with fitted lines, panel '14G01 Binding huART1', huART1 at 100.0, 25.00, 12.50, 6.250, 3.125, 1.563 nM; format not told for this figure (FIG. 12 legend: SPR, antibody captured on anti-mouse Fc, 1:1 fit).
Assay [5] has as its target T3, purified recombinant mouse ART1. Nature of the assay: sensorgrams R [RU] against time [s] with fitted lines, panel '14G01 Binding moART1', moART1 at 200.0, 100.0, 25.00, 12.50, 3.125, 1.563 nM; format not told for this figure (FIG. 12 legend: SPR, antibody captured on anti-mouse Fc, 1:1 fit).
Assay [6] addresses T1, human ART1 expressed on HEK293 cells. Nature of the assay: panel 'ART1 Ab binding' on HEK293 cells transfected with ART1; y axis GMFI, Ratio to 2nd Only, x axis Log[Ab], nM (the legend calls it a NAD-Glo assay); the curve rises from about 3.3 to a plateau of about 13.

Here are results for two molecules from US20250382381A1 (CORNELL UNIVERSITY, published 2025).

B1: 14G01 monoclonal antibody (antibody, V domains shown)
VH: QVQLQESGPGLVKPSETLSLTCTVSGGSISSYYWSWIRQPAGKGLEWIGRISTSGFTNYNPSLKSRVTMSVDSSKNQFSLKLSSLTAADTAVYYCARDGWGRVFDIWGLGTMVTVSS
VL: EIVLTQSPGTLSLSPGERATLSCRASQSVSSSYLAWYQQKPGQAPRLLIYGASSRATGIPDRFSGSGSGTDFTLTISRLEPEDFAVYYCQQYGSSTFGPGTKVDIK
notes: Purified from hybridoma supernatant; VH and VK are human; The antibody was captured on an anti-mouse Fc surface in SPR
Consider B1, for which, in assay [1], the “IC50 Cell Surface ADP-Ribosylation” value was 28 nM. Moreover, the Kd (commonly the constant that tells how readily two partners part at equilibrium) in assay [2] came to 4 nM; in assay [3], 6 nM; in assay [4], 3.8 nM; in assay [5], 6.2 nM.

B2: 22C12 monoclonal antibody (parental, mouse light chain) (antibody, V domains shown)
VH: QVTLKESGPVLVKPTETLTLTCTVSGFSLSNARMGVSWIRQPPGKALEWLAHIFSNDEKSYSTSLKSRLTISKDTSKSQVVLTMTNMDPVDTATYYCARIYGGDSWGYFDNWGQGTLVTVSS
VL: QIVLTQSPAIMSASLGEKVTMTCSASSSVSYMHWYQQKSGTSPKRWIYDTSKLASGVPARFSGSGSGTSYSLTISSMEAGDAATYYCQQWSSNPPTFGAGTKLELK
notes: Purified from hybridoma supernatant (AlivaMab Mouse); VH is human and VK is mouse; The antibody was captured on an anti-mouse Fc surface in SPR; also called 22C12 (mLC); mLC22C12
B2: the “IC50 Cell Surface ADP-Ribosylation” value in assay [1] came to 14 nM. For the same molecule, the Kd stood at 0.161 nM in assay [2] and 0.439 nM in assay [3]. Further, the EC50 (as a rule, the midpoint of the concentration-response curve) in assay [6] was determined as 0.75 nM.
